Here are results for eight substances from publication doi:10.1101/2023.05.22.541649.

One assay deals with GFP-I3-01 (recombinant). Kind of assay: fluorescence intensity of single particles.
Assay [1] concerns the target GFP-CENP-T^1–242^/3D (human) (UniProt Q96BT3). Kind of assay: single-molecule TIRF binding assay. The conditions noted are these: scale: NDC80^Bonsai complexes per GFP-CENP-T^1–242^/3D molecule.
Assay [2] deals with GFP-CENP-T^1–242^/3D-I3-01 (human) (UniProt Q96BT3). Kind of assay: single-molecule TIRF binding assay. The conditions noted are these: scale: NDC80^Bonsai molecules per GFP-CENP-T^1–242^/3D molecule.
The next assay concerns the target GFP-I3-01. Kind of assay: fluorescence intensity of single particles.
Assay [3] has as its target GFP-CENP-T^1–242^/3D-I3-01 (human) (UniProt Q96BT3). Kind of assay: fluorescence intensity of single particles.
Assay [4] concerns the target GFP-CENP-T^1–242–I3-01 (human) (UniProt Q96BT3). Kind of assay: affinity purification with mass spectrometry.
Assay [5] shares this target. Kind of assay: fluorescence intensity of single particles.

Turning to GFP-I3-01 (recombinant), the stoichiometry N (GFP molecules per oligomer) in the assay with GFP-I3-01 (recombinant) is 44.
Regarding GFP-tagged NDC80^Bonsai complex, the values for the stoichiometry N in assay [1] and in assay [2] were 0.28 and 2.2, respectively.
For GFP-I3-01, the stoichiometry N (GFP molecules per oligomer) with GFP-I3-01 came to 51.
Substance “GFP-CENP-T^1–242^/3D-I3-01 (from UniProt Q96BT3 1-242)” yielded a stoichiometry N (molecules per complex) in assay [3] of 66.
In turn, “NDC80 complex (from UniProt O14777 1-642; Q8NBT2 1-197; Q9HBM1 1-224)” displayed a fold more per CENP-T molecule than with monomeric GFP-CENP-T^1–242 in assay [4] of 5.6 fold.
In assay [4], “MIS12 complex (from UniProt Q9H081 1-205)” yielded a fold more per CENP-T molecule than with monomeric GFP-CENP-T^1–242 of 5.4 fold.
Consider “GFP-CENP-T^1–242–I3-01 (from UniProt Q96BT3 1-242)”, for which the stoichiometry N (GFP molecules per oligomer) in assay [5] amounted to 41.
For the substance “KNL1 complex (from UniProt Q8NG31 1-2342)”, the fold more per CENP-T molecule than with monomeric GFP-CENP-T^1–242 in assay [4] is 2.7 fold.

The stoichiometry N is a count of units in the complex or per binding partner.
